The values that follow come from paper PMC6482957 (Nature structural & molecular biology, 2018).

This test has as its target T1, human p300 ZZ domain (aa 1663–1713) (human, UniProt Q09472 1663-1713).
T1 sequence: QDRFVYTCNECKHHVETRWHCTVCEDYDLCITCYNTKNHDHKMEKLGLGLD
In words: crystal structure.

Take ARTKQT [histone H3 tail (residues 1–6)]: the binding result is recorded as “binds”.
